Experiment: yeast display, Sf9 membrane polyspecificity reagent, FACS + sequencing; frameworks hold sequencing errors
Method in brief: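 Nanobodies from a synthetic yeast display library (Saccharomyces cerevisiae BJ5465), induced 36–48 hours with galactose, were stained 1 hour at 4 °C with 10% biotinylated, detergent-solubilized Sf9 membrane reagent, enriched on streptavidin microbeads, then FACS-sorted. Anti-HA (expression) and streptavidin (reagent binding) fluorescence set low and high (top ~1%) gates. Polyreactivity labels come from the gate of origin. Genes were colony-PCR amplified, MiSeq 2 × 250 sequenced and filtered by CDR length.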
In the case of “QDQLVESGGGLVQAGGSLRLSCAASGFTFGDNAMGWYRQAPGKERELVAAITSSGSTNYADSVKGRFTISRDNAKNTVYLQMNSLKPEDTAVYYCNAEDSVDAPVYKDLGSEYDSWGQGTQVTVSS”, the “polyreactivity (PSR sort gate)” value is reported as “low polyreactivity”.
In the case of “QDQLVESGGGLVQAGGSLRLSCAASGFTFGYYAMGWYRQAPGKERELVAAISSGSSTYYADSVKGRFTISRDNAKNTVDLQMISLTPEDTAVFYCAATGDNNTPSGYDYWGQGTQVTVSS”, the “polyreactivity (PSR sort gate)” value is reported as “high polyreactivity”.
In the case of “QDQLVESGGGLVQAGGSLRLSCAASGFTFNANAMGWYRQAPGKERELVAAITRSGGRTYYADSVKGRFTISRDNAKNTVYLQMNSLKPEDTAVYYCANLVTNGRYDSWGQGTQVTVSS”, the “polyreactivity (PSR sort gate)” value is reported as “high polyreactivity”.
In the case of “QDQLVESGGGLVQAGGSLRLSCAASGFTFVRYAMVWYRQAPGKERELVAAISSSGGSTYYADSVKGRFTISRDNAKNTVYLQMNSLKPEDTAVYYCADGPFYRFTDGRYKSLDYCGQGTQVTVSS”, the “polyreactivity (PSR sort gate)” value is reported as “high polyreactivity”.
For “QDQLVESGGGLVQAGGSLRLSCAASGFTFYLYAMGWYRQAPGKERELVAAINGGGSSTYYADSVKGRFTISRDNAKTTVYLEMNSLKPEDTAVYYCNAVYYVVYVKEFDYWGQGTQVTVSS”, the “polyreactivity (PSR sort gate)” value was “high polyreactivity”.
In the case of “QDQLVESGGGLVQAGGSLRLSCAASGFTFYPYAMGWYRQAAGKERELVASITNGGSTNYADSVKGRFTISRDNAKNTVYLQMNSLKPEDTAVYYCNAAYGFYASRYWYASYDYWGQGTQVTVSS”, the “polyreactivity (PSR sort gate)” value is reported as “low polyreactivity”.
With “QDQLVESGGGLVQAGGSLRLSCAASGFTFYQYAMGLYIQAPGKERELVASITWNGGSTFYADSVKGRFTISRDNAKNTVYFQMNSLKPEDTAVYYCNVAYVYGSFRRRPMGYWGQGTQVTVSS” the “polyreactivity (PSR sort gate)” value was “high polyreactivity”.
For “QDQLVESGGGLVQAGGSLRLSCAASGGIFPAYAMGWYSQAPGKERELVASISANGGRTYYADSVKGRFTISRDNAKNTVYLQMNSLKPEDTAVYYCNKRWLHWSGYDYWGQGTQVTVSS”, the “polyreactivity (PSR sort gate)” value was “high polyreactivity”.
With “QDQLVESGGGLVQAGGSLRLSCAASGGTFGLNAMGWYRQAPGKERELVADIDGRGGCTYYADSVKGRFTISRDNAQNTVYLQMNSLKPEDTAVYYCAARAPFLSVPTELDYWGQGTQVSVSS” the “polyreactivity (PSR sort gate)” value was “low polyreactivity”.
With “QDQLVESGGGLVQAGGSLRLSCAASGIIFAWYVMGWYRQAPGKERELVATITSSGGRTYYADSVKGRFTISRDNAKNTVYLQMNSLKPEDTAVYYCNAALTRAFKHSTGYDYWGQGTQVTVSS” the “polyreactivity (PSR sort gate)” value was “low polyreactivity”.
In the case of “QDQLVESGGGLVQAGGSLRLSCAASGIIFDYYAMGWYRQAPGKERELVASISWSGGGTYYADSVKGRFTISRDNAKNTVYLQMNSLKAEDTAVYYCAADGSTVNAPRWSDPYDYWGQGTQVTVSS”, the “polyreactivity (PSR sort gate)” value is reported as “low polyreactivity”.
For “QDQLVESGGGLVQAGGSLRLSCAASGIIFYDYAMGWYRQAPGKERELVAAITSNGDNTYYADSVKGRFTISRDNAKNTVYLQMNSLKPEDTAGYYCAVDGSFAADFDNYLEEYGYWGQGTQVTVSS”, the “polyreactivity (PSR sort gate)” value was “low polyreactivity”.
For “QDQLVESGGGLVQAGGSLRLSCAASGIILRYYVMGWYRQAPGKERELVAAITSRGGSTYYADSVKGRFTISRDNAKNTVYLQMNSLKPEDTAVYYCAAGYRNVNTFDYWGQGTQVTVSS”, the “polyreactivity (PSR sort gate)” value was “high polyreactivity”.
In the case of “QDQLVESGGGLVQAGGSLRLSCAASGILDRYAMGWYRQAHGKERELFAAISYIAGSTYYADSVKGRFTISRDNAKNTVYLQLNSLKPEVTAVYYCAARGFGTVNGKLYGYWGQGTQVTVSS”, the “polyreactivity (PSR sort gate)” value is reported as “high polyreactivity”.
For “QDQLVESGGGLVQAGGSLRLSCAASGITFAYYVMGWYRQATGKERELVAAISRSGSTYYADSVKGRFTISRDNAKNTVYLQMNSLKPEDTAVNYCAVLYIRWYTYEYWGQGTQVTVSS”, the “polyreactivity (PSR sort gate)” value was “high polyreactivity”.
With “QDQLVESGGGLVQAGGSLRLSCAASGITFSGNAKGCYRQAPGKETELVAAISRNGGRTYYADSVKGRFTISRDNAKNTVYLQMNSLKQEDTAVYYCAKDAYGYFRVSAWYYTYDYWGQGTQVTVSS” the “polyreactivity (PSR sort gate)” value was “high polyreactivity”.
For “QDQLVESGGGLVQAGGSLRLSCAASGITIYRYVMGCSRQAPGKEREFVASITQSTGSTHYADSVKGRFTISRDNAKNTVYLQMNSLKPEDTAVYYCNAQKIVYYWVTLFPYYYWGQGTQVTVSS”, the “polyreactivity (PSR sort gate)” value was “low polyreactivity”.
For “QDQLVESGGGLVQAGGSLRLSCAASGLIFFFYPMGWYRQAPGKERELVASISGGGITYYADSVKGRFTISRDNAKNTVYLQMNSLKQEDTPVIKNDYWGQGTQVTLSS”, the “polyreactivity (PSR sort gate)” value was “low polyreactivity”.
In the case of “QDQLVESGGGLVQAGGSLRLSCAASGLSFASYVMGWYRQAPGKERELVAAISSSGDSTYYADSVKGRFTLSRDNAKNTVYLQMNSLKPEDTAVYYCAAKDYVWGQGTQVTVSS”, the “polyreactivity (PSR sort gate)” value is reported as “low polyreactivity”.
With “QDQLVESGGGLVQAGGSLRLSCAASGLTFKRNAMGWYRQAPVKERELVAAIRYSTDSTNYADSVKGRFTISRDNAKNTVYLQLNSMNPEDTAVYYCAKDKQDYEYWGQGTQVTVSS” the “polyreactivity (PSR sort gate)” value was “low polyreactivity”.
With “QDQLVESGGGLVQAGGSLRLSCAASGLTFLWYNMGWYRPAPGKERELVAGITWSGGSTYYADSVKGRFTISRDNAKNTVYLQMNSLKPEDTAVYYCAASFLWKVTGEYYYWGQGTQVTVSS” the “polyreactivity (PSR sort gate)” value was “high polyreactivity”.
In the case of “QDQLVESGGGLVQAGGSLRLSCAASGLTFTYYAMGWYRQAPGKERELVAAMTWNGGRTYYADSVKGRFTISRDNAKNTVYLLMNSLKPEDTAVYYCNARYILSSSGFGYWRQGTQVTVSS”, the “polyreactivity (PSR sort gate)” value is reported as “high polyreactivity”.
With “QDQLVESGGGLVQAGGSLRLSCAASGLTFYQYDMGWYRQAPGKERELVAAISRSGGRTYYADSVKGRFTISRDIAMITVYLQMNSLKPEDTAVYYCARPDKRLEYSENYYWGQGSQVTVSS” the “polyreactivity (PSR sort gate)” value was “high polyreactivity”.
For “QDQLVESGGGLVQAGGSLRLSCAASGLTLKENVMGWYRQAPGKERELFAAISTGASTYYADSVKGRFTISRDNAKNTVYLQMNSLKPEDTAVYYCAKRVTPWYGYWGQGTQVTVSS”, the “polyreactivity (PSR sort gate)” value was “high polyreactivity”.
In the case of “QDQLVESGGGLVQAGGSLRLSCAASGNIFCYYVMGWYRQAPGKERELVAAITWSGGTTNYADSVKGRFTISRDNAKNTVYLQMNSLKPDDTAVYDCATDRYAYKLYDYWGQGTQVTVSS”, the “polyreactivity (PSR sort gate)” value is reported as “low polyreactivity”.
With “QDQLVESGGGLVQAGGSLRLSCAASGNIIRKYAMGWYRQAAGKEREFVAAISSSGGRTYYADSVKGRFTISRDNAKNTVYLQMNSLKPEDTAVYYCAAEDWSYYDYDYWGQGTQVTVSS” the “polyreactivity (PSR sort gate)” value was “high polyreactivity”.
In the case of “QDQLVESGGGLVQAGGSLRLSCAASGRIFDDTAMGWSRPAPGKERELVAAITGGGRTNYADSVKGRFTISRDNAKNTVYLQMNSLKPEDTAVYYCAAATYGWVIYIYDYWGQGTQVTVSS”, the “polyreactivity (PSR sort gate)” value is reported as “low polyreactivity”.
In the case of “QDQLVESGGGLVQAGGSLRLSCAASGRIFDYNVMGWYRQAPGTEREFVADINGSGGGTNYADSVKGRFTISRDNAKNTVYFLMNSLKPEDTAVSYCNADSYEYHVPYYDYRYDYWGQGTQVTVSS”, the “polyreactivity (PSR sort gate)” value is reported as “low polyreactivity”.
For “QDQLVESGGGLVQAGGSLRLSCAASGRIFYFNTMGWSRQAPGKERELVAAISKNGGSTYYADSVKGRFTISRDIAKNTVYLQMNSLKPEDTAVYYCAKTRRLSPYDYWGQGTQVTVSS”, the “polyreactivity (PSR sort gate)” value was “high polyreactivity”.
With “QDQLVESGGGLVQAGGSLRLSCAASGRIIQYYDMGWYRQAPGKERELVAAITSNGGRTYYADSVKGRFTISRDNAKNTVFLLMNILKPEDTAVYYCAKTFDFSAYPPLTLKYGYWGQGTQVTVSS” the “polyreactivity (PSR sort gate)” value was “high polyreactivity”.
For “QDQLVESGGGLVQAGGSLRLSCAASGRILGSNTMGWDRQAPGKERELVAAITSAGNTNYADSVKGRFTISRDNAKNTVYLQMNSLKPEDTAVYYCNVRGQRLYYRVRRLYDYWGQGTQVTVSS”, the “polyreactivity (PSR sort gate)” value was “high polyreactivity”.
With “QDQLVESGGGLVQAGGSLRLSCAASGRILINNAMVWYRQAPGKERELVARITRGGRTNYADSVNGRFTISRDNPKNTDYFQMYCPKPVDTAVYDCNAEYVTPYYYGFGAKRDYWGQGTQVTVSS” the “polyreactivity (PSR sort gate)” value was “low polyreactivity”.
In the case of “QDQLVESGGGLVQAGGSLRLSCAASGRINAMGWYRQAPGKERELVAVITLRGGSTYYADSVKGRFTISRDNAKNTVYLQMNSLKPEDTAVYYCAAETLVSFWFDYWGQGTQVTVSS”, the “polyreactivity (PSR sort gate)” value is reported as “low polyreactivity”.
With “QDQLVESGGGLVQAGGSLRLSCAASGRNFELYAMGWYRPAPRKERELVATISGSGGSTYYADSVKGRFTISRDNAKNTVYLQMNSLKPEDTAVFYCAKNAYGYYYSRSDDWGQGTQVTVSS” the “polyreactivity (PSR sort gate)” value was “low polyreactivity”.
For “QDQLVESGGGLVQAGGSLRLSCAASGRNFGYYTRGWYRQAPGKERELVATINWSGGNTYYADSVKGRFTISRDNAKNTVYLQMTCLKPEDTAVYYCATRSRAPQQVYYQNYDYWGQGTQVTVSS”, the “polyreactivity (PSR sort gate)” value was “high polyreactivity”.
For “QDQLVESGGGLVQAGGSLRLSCAASGRNFSFNPMGLYRQAPGKERELVATIRTDGTTNYADSVKGRFTISRDNAKNTVYVQMNSLKPEDTAVYYCAADSAYHRRRMYYWGQGTQVTVSS”, the “polyreactivity (PSR sort gate)” value was “high polyreactivity”.
In the case of “QDQLVESGGGLVQAGGSLRLSCAASGRTFFWNAMGWYRPAPGKERELVAAITWSGGSTYYADSVKGRFTISRDNAKNTVYLQMNSLKPEDPAVYYCAAVVTDYVWRSEYWGQGTQVTVSS”, the “polyreactivity (PSR sort gate)” value is reported as “low polyreactivity”.
In the case of “QDQLVESGGGLVQAGGSLRLSCAASGRTFHLYAMGWYRPAPGKERELVAAIRWTGVSTYYADSVKGRFTISRDNAKNTVYLEMNSLKPEDTAVYYCATKQRYRVSRDWSSYCYGYWGQGTQVTVSS”, the “polyreactivity (PSR sort gate)” value is reported as “high polyreactivity”.
With “QDQLVESGGGLVQAGGSLRLSCAASGRTFKTYAMGWYRQAPGKERELVAAISYSSGRTYYADSVKGRFTISRDNAKNTVYLQMNSLKPEDTAVYYCASLGSGVPRYYYWGQGTQVTVSS” the “polyreactivity (PSR sort gate)” value was “high polyreactivity”.
With “QDQLVESGGGLVQAGGSLRLSCAASGRTFPWYAMGWYRPAPGKERELVAAISTGGSRTYYADSVKGRFTISRDNAKNTVYLQMNSLKPEDTAVYYCNARNTLRDYPYGYWGQGTQVTVSS” the “polyreactivity (PSR sort gate)” value was “high polyreactivity”.
In the case of “QDQLVESGGGLVQAGGSLRLSCAASGRTFRYNAMGWYRQAPGKERELVAAISGRGSSTYYADSVKGRFTISRDNAKNTVYLQMNSLKPEETAVYYCAALPASVRRPGWHDYWGQGTQVTVSS”, the “polyreactivity (PSR sort gate)” value is reported as “high polyreactivity”.

Source: the nanobody polyreactivity screen of Harvey et al. (2022)
